According to patent publication US20240029824A1 (University of Washington, published 2024):

Columns and labels:
[1] = biological target: T1, DHT03_3arm_A21/B21/C82 chain C; assay: three components purified separately, mixed equimolar, heat annealed, SEC, negative stain EM
T1 construct: also called chain C DHR82 fusion; chain C of C3-DHT03-01-DHR82 and C4-DHT03-01-DHR82
T1 chain: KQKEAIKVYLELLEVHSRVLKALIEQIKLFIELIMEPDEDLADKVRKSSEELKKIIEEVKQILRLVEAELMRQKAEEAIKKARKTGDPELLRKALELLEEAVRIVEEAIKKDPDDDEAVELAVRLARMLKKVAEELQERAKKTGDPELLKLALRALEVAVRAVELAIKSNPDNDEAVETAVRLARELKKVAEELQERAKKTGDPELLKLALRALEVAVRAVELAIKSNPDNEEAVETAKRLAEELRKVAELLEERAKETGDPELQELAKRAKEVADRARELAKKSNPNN
Text: As is evident from the images in FIGS. 4c and 4d, the cyclic structures retain one of the original heterotrimer helical hairpins in each corner; these short, outward facing protein chains provide fusion points for further elaboration of higher order symmetric assemblies. To evaluate the potential for building up larger nanostructures using the rings as hubs, and explore the modularity of the designed building blocks, we replaced the original outward facing chain C helical hairpin with the chain C DHR82 fusion (as it was the largest 4-repeat DHR) from FIG. 3d, row 8. This was done for two designs (C3-DHT03-01 and C4-DHT03-01), with chain C replaced by fusion C82 through expressing and purifying the three components separately, mixing them in equal molar quantities, and reconstituting using heat annealing.
An AKTA PURE FPLC system was used. Heterotrimer bases, arm extensions, coiled coil C2 rings, and all constructs mentioned in SI were passed through a Cytvia Superdex S200 Increase 10/300 GL column, while C3/C4 rings made from DHT03 were passed through a Cytvia Superdex S6 Increase 10/300 GL column. The mobile phase was TBS (25 mM Tris-HCl pH 8.0, 100 mM NaCl or 25 mM Tris-HCl pH 8.0, 150 mM NaCl). Samples ran at a flow rate of 0.75 ml/min and fractions were collected at 0.5 ml.

[2] = biological target: T2, C3-DHT03-01 chain B; assay: chains mixed and annealed, SEC, negative stain EM; A3B3C3 ring
T2 construct: three copies in the A3B3C3 ring; also called C3-DHT03-01-DHR82 chain B
T2 chain: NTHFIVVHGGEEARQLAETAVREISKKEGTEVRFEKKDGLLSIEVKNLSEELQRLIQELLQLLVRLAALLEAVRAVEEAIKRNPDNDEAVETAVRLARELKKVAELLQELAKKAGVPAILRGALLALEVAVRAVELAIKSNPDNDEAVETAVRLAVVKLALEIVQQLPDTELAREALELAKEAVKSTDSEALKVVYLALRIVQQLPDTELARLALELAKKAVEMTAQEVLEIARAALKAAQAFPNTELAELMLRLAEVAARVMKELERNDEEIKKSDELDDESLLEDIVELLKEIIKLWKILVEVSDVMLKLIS

[3] = biological target: T3, DHT03 chain C (SEQ ID NO: 59); assay: as above
T3 chain: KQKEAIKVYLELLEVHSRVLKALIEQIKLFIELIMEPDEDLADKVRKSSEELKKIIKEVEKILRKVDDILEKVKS

[4] = biological target: T4, DHT01-4arm-02 chain B; assay: bicistronic expression, SAXS, negative stain EM; A2B2 ring
T4 construct: Strep-tag II was added to the N-terminus of chain B of DHT01 arms; also called C2-DHT01-04 chain B
T4 chain: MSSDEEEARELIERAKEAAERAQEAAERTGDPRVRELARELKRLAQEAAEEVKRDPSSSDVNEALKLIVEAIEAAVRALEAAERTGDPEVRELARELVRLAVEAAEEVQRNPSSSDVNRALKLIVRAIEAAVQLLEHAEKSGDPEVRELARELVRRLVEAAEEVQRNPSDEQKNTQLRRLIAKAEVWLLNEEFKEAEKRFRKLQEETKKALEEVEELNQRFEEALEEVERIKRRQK

[5] = biological target: T5, C3-DHT03-02 chain B; assay: chains mixed and annealed, SEC, negative stain EM; A3B3C3 ring
T5 construct: three copies in the A3B3C3 ring
T5 chain: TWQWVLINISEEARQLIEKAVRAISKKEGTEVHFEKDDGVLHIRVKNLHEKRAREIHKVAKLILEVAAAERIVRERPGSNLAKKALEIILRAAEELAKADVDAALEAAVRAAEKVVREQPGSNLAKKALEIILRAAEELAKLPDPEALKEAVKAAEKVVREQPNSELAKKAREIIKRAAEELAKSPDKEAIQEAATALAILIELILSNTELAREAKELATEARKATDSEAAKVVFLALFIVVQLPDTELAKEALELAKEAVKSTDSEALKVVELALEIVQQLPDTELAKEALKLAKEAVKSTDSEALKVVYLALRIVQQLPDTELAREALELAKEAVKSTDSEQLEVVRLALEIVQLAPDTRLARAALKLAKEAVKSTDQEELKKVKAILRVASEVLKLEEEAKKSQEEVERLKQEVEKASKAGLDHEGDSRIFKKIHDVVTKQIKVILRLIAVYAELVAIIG

[6] = biological target: T4, DHT01-4arm-02 chain B; assay: SEC and SDS-PAGE; chains of one ABC heterotrimer
[7] = biological target: T6, DHT01-4arm-01 chain B; assay: co-expression, pull-downs, SEC, native MS, SAXS; chains of one ABC heterotrimer
T6 construct: Strep-tag II was added to the N-terminus of chain B of DHT01 arms
T6 chain: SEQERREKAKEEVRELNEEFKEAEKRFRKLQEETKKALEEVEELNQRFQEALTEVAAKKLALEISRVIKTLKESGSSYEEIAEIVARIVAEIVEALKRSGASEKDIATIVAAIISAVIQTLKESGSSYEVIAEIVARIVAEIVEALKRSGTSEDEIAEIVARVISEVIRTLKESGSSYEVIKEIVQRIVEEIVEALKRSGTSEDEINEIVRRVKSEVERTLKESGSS

[8] = biological target: T7, DHT01-4arm-01 chain C; assay: as above
T7 construct: also called DHT01-4arm-02 chain C; C2-DHT01-01 chain B
T7 chain: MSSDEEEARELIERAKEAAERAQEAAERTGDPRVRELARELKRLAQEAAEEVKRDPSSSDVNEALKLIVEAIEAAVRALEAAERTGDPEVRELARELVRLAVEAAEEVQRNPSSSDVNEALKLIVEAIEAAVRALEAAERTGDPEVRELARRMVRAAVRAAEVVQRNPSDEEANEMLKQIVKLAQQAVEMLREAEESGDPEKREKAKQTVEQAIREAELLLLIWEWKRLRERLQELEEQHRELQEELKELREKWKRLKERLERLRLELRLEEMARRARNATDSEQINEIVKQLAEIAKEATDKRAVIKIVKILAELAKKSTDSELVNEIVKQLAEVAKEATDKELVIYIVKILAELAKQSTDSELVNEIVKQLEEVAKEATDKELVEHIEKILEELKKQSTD

[9] = biological target: T8, C4-DHT03-01 chain B; assay: chains mixed and annealed, SEC, negative stain EM; A4B4C4 ring
T8 construct: four copies in the A4B4C4 ring; also called C4-DHT03-01-DHR82 chain B
T8 chain: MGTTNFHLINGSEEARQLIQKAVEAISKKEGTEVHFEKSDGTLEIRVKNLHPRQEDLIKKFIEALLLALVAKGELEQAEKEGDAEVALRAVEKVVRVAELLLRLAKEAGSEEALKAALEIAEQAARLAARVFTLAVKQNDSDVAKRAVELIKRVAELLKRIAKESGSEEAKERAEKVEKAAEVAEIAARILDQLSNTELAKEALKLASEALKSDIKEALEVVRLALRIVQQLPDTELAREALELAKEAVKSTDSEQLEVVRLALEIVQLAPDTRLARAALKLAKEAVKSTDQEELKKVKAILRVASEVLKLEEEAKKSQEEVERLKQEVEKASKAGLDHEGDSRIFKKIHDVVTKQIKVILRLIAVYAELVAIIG

[10] = biological target: T3, DHT03 chain C (SEQ ID NO: 59); assay: as above

B1: C3-DHT03-01 chain A (designed binder)
chain: TTNFHLINGSEEARQLIQKAVEAISKKEGTEVHFEKSDGTLEIRVKNLHPRQEDLIKKFIEALLLALVAKGELEQAEKEGDAEVALRAVEKVVRVAELLLRLAKEAGSEEALKAALEIAEQAARLAKRVLELAEKQGDAEVALKAVLLVVIVAALLVKIAKESGSEEAKERATRVAREASRLADRVEELARKQNNEDVTLAAKVLKLAADIIAQLMNTELAEEAAQLATEALKATDREQLEVVRLALEIVQLAPDTRLARAALKLAKEAVKSTDQEELKKVKAILRVASEVLKLEEEAKKSQEEVERLKQEVEKASKAGLDHEGDSRIFKKIHDVVTKQIKVILRLIAVYAELVAIIG
notes: three copies in the A3B3C3 ring; also called C3-DHT03-01-DHR82 chain A
binding result [1]: binds | binding result [2]: binds | binding result [3]: binds

B2: C2-DHT01-04 chain A (designed binder)
chain: DEEEKLRESLEEQKKRVKEIEREHEEIREALKRLQQSVLRQAVRLAKLGDDSEMINRIVKDLAEQAKEATDKREVIKIVKALAELAKNSTDRELINEIAKQLAEVAKEATDEELQRYIAKILIELAEQAIKEAERSLREGNPEKAREDVRLALELVRLLLEIAQALNLLEVLEEAARLAFEVARVAKEVGSPETARQARETAERLLEWAMKMIEEKAKKEKDRNDQSSDVNEAAKLIREAAEAAQRAREAASRTGDPEVKDLAWRMVEAALKAAAVVATNPSDEEANEMLKQIVKLAQQAVEMLREAEESGDPEKREKAKQTVEQAIREAELLLLIWEWKRLRERLQELEEQHRELQEELKELREKWKRLKERLERLRLELRLEEMARRARNATDSEQINEIVKQLAEIAKEATDKRAVIKIVKILAELAKKSTDSELVNEIVKQLAEVAKEATDKELVIYIVKILAELAKQSTDSELVNEIVKQLEEVAKEATDKELVEHIEKILEELKKQSTD
notes: two copies in the A2B2 ring
binding result [4]: binds

B3: C3-DHT03-02 chain A (designed binder)
chain: SSIFLLSNVDESARQLAEELVREISKKEGTEVRFEKDDGFLTIEVKNLSEERLREIARALQLIVDVANAERVVRERPGSNLAKKALEIILRAAEELAKLTLEASLKAAQIAAELVVREQPGSNLAEKAKTIILQARAAELAIRIEEQLKDTELAKEAKELATEAIKAQDKEALKVVELALKIVQQLPDTELAKEALKLAKEAVKSTDSEALKVVELALEIVQQLPDTELAKEALELAEEAVKSTDSEALKVVKLALEIVQQLPDTELAREALELAKEAVKSTDSEALKVVYLALRIVQQLPDTELARLALELAKKAVEMTAQEVLEIARAALKAAQAFPNTELAELMLRLAEVAARVMKELERNDEEIKKSDELDDESLLEDIVELLKEIIKLWKILVEVSDVMLKLIS
notes: three copies in the A3B3C3 ring
binding result [5]: binds | binding result [3]: binds

B4: DHT01-4arm-01 chain A (designed binder)
chain: DEEEKLRESLEEQKKRVKEIEREHEEIREALKRLQQSVLRQAVRLAKLGDDSEMINRIVKDLAEQAKEATDKREVIKIVKALAELAKNSTDSELVNEIVKQLAEVAKEATDKELVIYIVKILAELAKQSTDSELVNEIVKQLEEVAKEATDKELVEHIEKILEELKKQSTD
notes: also called DHT01-4arm-02 chain A
binding result [6]: binds | binding result [7]: binds | binding result [8]: binds

B5: C4-DHT03-01 chain A (designed binder)
chain: MGNTHFIVVHGGEEARQLAETAVREISKKEGTEVRFEKKDGLLSIEVKNLSEELQRLIQELLQLLVRLAALLEAVRAVEEAIKRNPDNDEAVETAVRLARELKKVAELLQELAKKAGVPAILRGALLALLVAARAVALAALANSKNDEAREALKRLAEELKKVAKELKERAKKTKDSELERLALAAELMALAAEIVAQLANTELAREALELATEAIKASDDEALRVVKLALRIVQQLPDTELARLALELAKKAVEMTAQEVLEIARAALKAAQAFPNTELAELMLRLAEVAARVMKELERNDEEIKKSDELDDESLLEDIVELLKEIIKLWKILVEVSDVMLKLIS
notes: four copies in the A4B4C4 ring; also called C4-DHT03-01-DHR82 chain A
binding result [9]: binds | binding result [10]: binds | binding result [1]: binds
